“Also recorded” adds a separate entry of the source.
Legend:
[1] = tested on: K. pneumoniae carbapenem-resistant (CRE) strain Kp1131115 (O1); experiment: acute lethal pneumonia model, survival; format: in vivo, Klebsiella pneumoniae; conditions: C57BL/6 mice, antibody one hour post bacterial challenge, vs human IgG1 control (R347)
Protocol: (§1) In an acute pneumonia model, C57BL/6 mice were inoculated intranasally with 1e4 to 1e8 CFU of the multi-drug resistant Klebsiella pneumoniae carbapenam resistant (CRE) clinical isolate strain KP1131115 (O1). Anti-K. pneumoniae monoclonal antibody KPE33 at 0.2, 1, and 5 mg/kg and human IgG1 control antibody at 5 mg/kg were given one hour post bacterial challenge (therapeutic dosing). Mouse survival was monitored daily until up to day 8.
as §1, with “Additionally, in an” for “In an”, “monoclonal antibodies […] and […]” for “monoclonal antibody KPE33”, “at 0.2” for “at 0.2, 1,”, “and 1” for “and 5”
KPE33 or KPE33-V-2016 were administered at a dose of 6 mg/kg 1 hour post bacterial infection with a Klebsiella pneumoniae carbapenam resistant strain.

[2] = tested on: Klebsiella pneumoniae of the LPS-O1 serotype; experiment: primary screening, binding to whole bacteria
Source text: KPA27 and KPE33 were isolated from the peripheral blood of two different immune donors: #487 and #262, respectively. […] KPA27 and KPE33 were isolated from immune donors as IgG2 antibodies.
KPB202 and KPJ4 were isolated from tonsillar B cells of two different donors: T6 (KPB202) and T8 (KPJ4). […] KPB202 and KPJ4 were isolated from donors as IgG1 and IgG2 antibodies, respectively.

[3] = biological target: O1 LPS; experiment: Octet binding affinity to O1 LPS; set-up: species or system Klebsiella pneumoniae; conditions: average, from on-rate and off-rate, read-out: affinity constant (KD) to O1 LPS
Source text: In order to reduce potential sequence liabilities for antibody development including potential immunogenicity due to anti-drug antibodies, an unpaired Cysteine in the light chain CDR3 of KPE33 was exchanged with Threonine (T), and somatic mutations in the frameworks 1, 2, and 4 of KPE33 were replaced with germ line residues (as summarized in FIG. 5). CDRs were maintained as wildtype, except for the C107T substitution described above. The optimized KPE33 was named KPE33v2016. […] This platform provides a powerful tool to measure the rate of biomolecular complex formation and complex stability in a more biologically meaningful setting. Briefly, Protein A coated sensors were coated with 2 μg/mL O1 LPS for 10 minutes before being dipped into solution containing 0.2 μg/mL anti-O1 LPS mAbs in Kinetics buffer (ForteBio, dilute 10× to 1× with PBS). Changes in the number of molecules bound to the biosensor caused a shift in the interference pattern that was recorded in real time. […] The affinity constant (KD) of KPE33 and KPE33v2016 to O1 LPS was calculated based on the on-rate and off-rate from Octet sensorgram.
KPE33v2016 was further optimized, thereby creating two new variants—KPE33 H32+L2016(1EQ) and KPE33 H33+L2016(1EQ). Both of these variants contain a Methionine to Isoleucine mutation adjacent to CDRH1, a Tryptophan to Tyrosine mutation in CDRH2, an Aspartate to Glutamate mutation adjacent to CDRH2, Asparagine to Glutamine and Methionine to Leucine mutations in FRH3 and an Aspartate to Asparagine mutation in CDRH3. In addition, KPE33 H32+L2016(1EQ) had four FRH3 residues changed to the germ-line residues, whereas KPE33 H33+L2016(1EQ) only has three of the same FRH3 residues changed to the germ-line. Both of these variants contain the same light chain as KPE33v2016, but with a single Glutamate to Glutamine mutation in residue 1.

B1: KPE33: human anti-K. pneumoniae O1 antigen antibody, VH SEQ ID NO:8, VL SEQ ID NO:9, isolated as IgG2 from donor #262 (antibody, V domains shown)
VH: EVQLVESGGALVQPGGSLRLSCAVSGFIFDDYAIHWVRRAPGKGLEWVSGIAWKSGATNYADSVKGRFAISRDNSKKSMYLQMNSLGTEDTALYYCTRRRASGDDTFYYFDYWGQGTLVTVSS
VL: EIVLTQSPATLSLSPGERATLSCRASQNVNTNLAWYQQRPGQSPRLLIYDASTRAAGLPARFSGSGSGTDFTLTISSLEPEDFAVYYCQQCTNWRYTFGQGTKLEIK
modifications: KPE33 VH Amino Acid Sequence; KPE33 VL Amino Acid Sequence
survival, lethal pneumonia Kp1131115 [1]: protect mice from lethal bacterial challenge; also recorded: dose dependently enhanced survival | binding to bacteria in primary screening [2]: bind to Klebsiella pneumoniae of the LPS-O1 serotype | Kd [3]: 5.83 nM

Reference: US12018068B2, “Anti-O1 antibodies and uses thereof” (priority 2016, dated 2024)
